{"source": "paper PMC8500521", "target": "HR2 (heptad repeat 2) polypeptide of SARS-CoV-2 spike protein (SARS-CoV-2) (UniProt P0DTC2)", "assay": "AUC; sedimentation velocity, 50,000 rpm, 20 C, 50 mM NaCl, 25 mM sodium phosphate pH 6.0, no detergent; monomer to tetramer"}
{"substance": "HR2 (heptad repeat 2) polypeptide of SARS-CoV-2 spike protein (from UniProt P0DTC2 1171-1207) (domain or fragment)", "values": [{"measurement": "monomer population at 250 uM", "result": 10, "unit": "%"}, {"measurement": "stoichiometry N", "result": 4}]}
